From the supplement of paper PMC10126150
± gives the standard deviation of the averaged measurements.

Tested on: ATP
Experiment: switch fluorescence ratio, 500 uM ATP over buffer (Cy3 cluster intensity, sum of 5 cycles each) (fold (ratio)); higher = stronger signal-on switching upon ATP binding; sequences stand for … in TCGTCGGCAGCGTCAGATGTGTATAAGAGACAGTTTTTTTTTTTTTTTTTTTTTTTTT…TC
Settings: aptamer strand: ATP DNA aptamer (quencher-CACCTGGGGGAGTATTGCGGAGGAAGG + anchor), 100 nM annealed; ATP concentration: 500 uM
Method in brief: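 Between each of five buffer/ATP cycles, the flow-cell was stripped with NaOH and re-annealed. Each cycle imaged Cy3-labelled switching-strand clusters, annealed to 100 nM quencher-labelled ATP aptamer on a modified Illumina MiSeq flow-cell, first in selection buffer and then after 15 min with 500 uM ATP at 22 °C. The fluorescence ratio is summed target-cycle over summed buffer-cycle Cy3 intensity per cluster, averaged per switch-domain sequence, with clusters outside 100-1000 RFU excluded.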
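Further: ATP exposure 15 min at 22 °C before imaging.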

| Sequence | switch fluorescence ratio |
| --- | --- |
| TTAGGGGCAC | 0.993 ± 0.018 |
| GCAACAGCAA | 1.04 ± 0.015 |
| CAGGGAAGG | 0.995 ± 0.016 |
| TATAATATTT | 1 ± 0.021 |
| TGTACGGGGA | 0.995 ± 0.03 |
| AGTGGGGCCA | 1.03 ± 0.044 |
| GTGAGCTGAT | 1.023 ± 0.0081 |
| CTGATTCGGT | 0.9889 ± 0.0027 |
| TTGATATCGG | 0.979 ± 0.023 |
| CGAAAGATGT | 0.9857 ± 0.0025 |
| ATTTGGTGTT | 1.01 ± 0.032 |
| CATTTGCGGA | 0.981 ± 0.055 |
| CGAGGTCAGT | 1.044 ± 0.01 |
| TTAGTGGGGG | 0.998 ± 0.029 |
| GCCCATGGGT | 1.07 ± 0.12 |
| AATAAGTGTT | 0.9792 ± 0.008 |
| ATACGAGCAG | 1.067 ± 0.006 |
| CGTTGCTTTG | 0.9869 ± 0.0016 |
| GTGTTCTCGC | 0.999 ± 0.05 |
| TGACAACCGG | 1.05 ± 0.021 |
| ACGAGGCCGG | 0.952 ± 0.077 |
| AAACGTCTGA | 0.9936 ± 0.0016 |
| CACCGCGTCG | 1.21 ± 0.017 |
| CACGGTTTGC | 1.01 ± 0.021 |
| GTTGGTCTAC | 1.04 ± 0.018 |
| GGTTATTTA | 0.992 ± 0.035 |

| Sequence | switch fluorescence ratio |
| --- | --- |
| TCAATCGGAA | 1.06 ± 0.014 |
| CAGGAAGCAG | 1.05 ± 0.09 |
| AAGTCCCCGG | 1.18 ± 0.015 |
| GACACGTGGG | 1.02 ± 0.055 |
| AATGCTGGTG | 1.075 ± 0.01 |
| AAATGTATGT | 0.988 ± 0.037 |
| TCTGGGGGAG | 0.977 ± 0.029 |
| TGTTTGTGAG | 1 ± 0.045 |
| TTAGTTCGGG | 0.965 ± 0.023 |
| GGATGAGGGC | 0.993 ± 0.0099 |
| AGTTTTTCGT | 1.01 ± 0.019 |
| TAGAAAGGTC | 1.073 ± 0.0025 |
| TGGGAGGTTC | 1.03 ± 0.02 |
| TTGTTTTTAC | 1.07 ± 0.052 |
| TTATAGAGTT | 0.9649 ± 0.0032 |
| ACGGTCTGGA | 1 ± 0.041 |
| ATGTATGTGC | 0.997 ± 0.041 |
| TTTTCATAAG | 1 ± 0.011 |
| TCGGCGAAAA | 1.84 ± 1.1 |
| AGATAGAGTG | 0.996 ± 0.02 |
| AGTAGGGTCC | 1.03 ± 0.029 |
| AACCACTCAT | 1.02 ± 0.053 |
| AGGTCGATCC | 0.993 ± 0.05 |
| AGGATTTTAG | 1.002 ± 0.0049 |
| TGATTTATAG | 1.012 ± 0.009 |
| TGTGGCTCTG | 0.9571 ± 0.0087 |

| Sequence | switch fluorescence ratio |
| --- | --- |
| AATTCCGGGT | 1.02 ± 0.031 |
| GCCGGGGTTA | 0.9966 ± 0.0088 |
| CCTGTTCCGA | 1.19 ± 0.028 |
| GATATGGGTG | 1.04 ± 0.049 |
| AAAAGTTCTG | 1.01 ± 0.057 |
| TCATACTTAA | 1.04 ± 0.1 |
| GTAGAAACGC | 0.998 ± 0.01 |
| TTGCACGCCT | 1.01 ± 0.024 |
| GTTGGGGGCA | 0.968 ± 0.049 |
| ATGGGTCTT | 1.01 ± 0.023 |
| GGGTGTATCG | 0.9943 ± 0.0036 |
| GTGGTTAGCA | 0.9712 ± 0.0065 |
| CCTTCGTTGT | 2.85 ± 0.64 |
| AGTAGGAGT | 0.998 ± 0.033 |
| TGGGAAATCT | 1.17 ± 0.25 |
| GTTAGTACGG | 0.9819 ± 0.0036 |
| TAATAGGGGT | 1 ± 0.018 |
| CGATTACGAT | 1.01 ± 0.03 |
| AAAATGCGGG | 1.01 ± 0.036 |
| GACGGGTTAG | 1.02 ± 0.017 |
| CCGGGAGTCG | 1.06 ± 0.017 |
| ATGTCCTAGC | 1.03 ± 0.0038 |
| ATGCATCTAT | 0.989 ± 0.011 |
| TGGTAGACGG | 1.15 ± 0.26 |
| ACTATTTTTT | 1 ± 0.029 |
| TATAAGGCGC | 0.949 ± 0.032 |

| Sequence | switch fluorescence ratio |
| --- | --- |
| TCACTGGGTG | 1.23 ± 0.035 |
| CATGGAGTGT | 1.01 ± 0.026 |
| CTTTCCCCGT | 1.396 ± 0.0017 |
| TTCGGGGGGC | 0.961 ± 0.039 |
| GCTAGGTGAA | 1.21 ± 0.017 |
| GCGGGGCCTT | 0.9811 ± 0.004 |
| GGAACCATAT | 0.997 ± 0.013 |
| CGAGGGATCA | 0.9947 ± 0.0011 |
| AGATTGGAGG | 0.957 ± 0.028 |
| TAATGGACAA | 1.04 ± 0.017 |
| AGAGGCTGGT | 0.992 ± 0.017 |
| ATTCATTTTC | 1.02 ± 0.015 |
| GCTGGGGGCT | 1.008 ± 0.0076 |
| ATGTTAAAGG | 0.998 ± 0.016 |
| ATCATTGGTA | 1 ± 0.023 |
| AAAAGGAAT | 1.001 ± 0.009 |
| TGAGTCGTGT | 0.9674 ± 0.0054 |
| GTGTTCGGGG | 0.998 ± 0.021 |
| TGCTTGGTTT | 1.02 ± 0.018 |
| GATTTATGG | 0.994 ± 0.058 |
| GGTCATTCAA | 0.982 ± 0.027 |
| GGGGCTTGTG | 1.01 ± 0.028 |
| TCGTGCACGA | 1.018 ± 0.0062 |
| ATTCGGTAA | 0.9962 ± 0.0072 |
| ATGGGGGTTC | 0.992 ± 0.023 |
| TCAGGGCTAA | 1.02 ± 0.062 |

| Sequence | switch fluorescence ratio |
| --- | --- |
| GAAAAATCGA | 0.9882 ± 0.0056 |
| GTTGAGGAGG | 0.9891 ± 0.0086 |
| TTTTAGTCGG | 0.9883 ± 0.0092 |
| CAATGGGGGC | 1.02 ± 0.045 |
| CGCGCGGAAC | 0.98 ± 0.019 |
| TCATTGGGGT | 0.957 ± 0.033 |
| AATCTTTGCT | 1.011 ± 0.0063 |
| TAGTGTTTTT | 0.9775 ± 0.0093 |
| GACACAGGGG | 1.06 ± 0.047 |
| GATGTCTATC | 1.01 ± 0.011 |
| GGGGGTCAGT | 0.991 ± 0.01 |
| ATAACGGGGA | 0.999 ± 0.015 |
| CCGGGGTATT | 1.07 ± 0.033 |
| GGTCTAATGG | 0.998 ± 0.051 |
| CGTATGTTGG | 1.04 ± 0.012 |
| TTTACTTTGC | 1.48 ± 0.69 |
| AGGTCCGGTG | 1.031 ± 0.0096 |
| GCAAGTCATG | 1.03 ± 0.04 |
| GAAGTGGTTT | 0.997 ± 0.025 |
| GCAGTCCGTC | 1.06 ± 0.019 |
| AGTGTGAGCT | 1 ± 0.037 |
| TTGTTTCATG | 1.01 ± 0.025 |
| CTGGTATTAT | 1.017 ± 0.0046 |
| TAGTGGTCCA | 0.98 ± 0.03 |
| TCGGGGGCCT | 0.959 ± 0.022 |
| ATCTGCCTTG | 1 ± 0.019 |

| Sequence | switch fluorescence ratio |
| --- | --- |
| GGTCTAAATT | 1 ± 0.039 |
| GGATAGGAGC | 0.964 ± 0.033 |
| TGTGGCGGGA | 1.06 ± 0.13 |
| TGGGGGTATT | 1.05 ± 0.16 |
| CGGGGGGAAA | 1 ± 0.02 |
| ATCAGACTTG | 1.023 ± 0.0012 |
| GATCATGCGG | 0.9854 ± 0.0089 |
| TCTATTACGC | 1 ± 0.047 |
| CAAAAGGAAA | 0.992 ± 0.022 |
| TGGGAACCGT | 1.18 ± 0.32 |
| ACGAGATTAT | 1.02 ± 0.014 |
| TTCTGGTTAC | 1.059 ± 0.004 |
| GAAATAATGG | 1.03 ± 0.041 |
| TAGATTAGGA | 1.01 ± 0.036 |
| GTTTATCATT | 0.982 ± 0.011 |
| ACGGGGCCGG | 1.06 ± 0.032 |
| TATGATTGGG | 1.008 ± 0.0013 |
| GACTAATACG | 1.04 ± 0.024 |
| AGGGAAGGAC | 1.03 ± 0.029 |
| AAGAAATCTC | 1.04 ± 0.11 |
| AGGGAAAGGG | 1.02 ± 0.02 |
| TTATTTCAAG | 1.01 ± 0.064 |
| GGGGGGGTTC | 1 ± 0.028 |
